The supplement of paper PMC9170038

Test system: MS2 coat protein
Test: apparent KD of MS2 coat protein; designed switch direction (-1 OFF switch, 1 ON switch): -1; higher = weaker reporter binding
Method in brief: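 An oligonucleotide input, 200 uM small-molecule ligand, or no input was present during titration of SNAP-549-labelled MS2 coat protein, which was doubled from 0.7 or 1.5 nM to 3 µM. Designed RNA switches had been transcribed on Illumina chips by stalled E. coli RNA polymerase. Apparent KD per design is the median over clusters of curves fitted to normalised cluster fluorescence.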

[1] = Eterna round: R95, input ligand: FMN 200 uM
[2] = Eterna round: R95, input ligand: microRNA oligo, concentration not stated
[3] = Eterna round: R95, input ligand: none
[4] = input ligand: microRNA oligo, concentration not stated

Sequence	apparent KD of MS2 coat protein (input ligand: FMN 200 uM)	apparent KD of MS2 coat protein (input ligand: none)	apparent KD of MS2 coat protein [1]	apparent KD of MS2 coat protein [2]	apparent KD of MS2 coat protein [3]	apparent KD of MS2 coat protein [4]
UUAGAUUGAGGAUAUACAUGAGGAUCACCCAUGUCGAUACCAAUGGUGUUGACCGUCAGUAGAAGGCGAAUUGA [Eternabot (L1) Solution 87] (Eterna round: R97, puzzle: Exclusion 3)	0.163 µM	0.123 µM	–	–	–	–
UAUUAGCAAGUAAGGUCCCACAUGAGGAUCACCCAUGUGCUCGUCUCCUCAGGUACGGAGUGGAAACUCCCGAUAUG [Sensor-V1 #93] (Eterna round: R97, puzzle: Sensor, turn-off variant 1)	0.0847 µM	0.076 µM	–	–	–	–
AGUUGUUGUUUCCGUUCUUACAUGAGGAUCACCCAUGUUUCUUGUCGUGCUCGCGUUGCUCGUCUGGCUGCCUGUUG [salish99_TOv1_r3_069] (puzzle: Sensor v3, turn-off variant 1)	–	–	0.0407 µM	0.0352 µM	0.0533 µM	–
UGUACGAUGCGUGCUGACAUGCGUCGUGCAGCAGGUUUUACAUGAGGAUCACCCAUGUCCUCACUUGCUCGUCUUGU (puzzle: Sensor v3, turn-off variant 2)	–	–	0.257 µM	0.187 µM	0.279 µM	–
ACAUGAGGAUCACCCAUGUCCGGCUGGUCCGUCUCGGCUGUCGAGGAUAUAGCUUGGUGUCCGCGCUAGAAGGUGGGAGCCGGU [Aenatbe mod 70] (Eterna round: R96, puzzle: Exclusion NG 3)	0.061 µM	0.0566 µM	–	–	–	0.0402 µM
AAACCUAGUCUAGGAUAUGGUGAGAGUUUGUCGGUGAGUACAUGAGGAUCACCCAUGUACGCUUGCUAGAAGGAGACAGGCUCG [Eternabot solution 37] (Eterna round: R96, puzzle: Exclusion NG 2)	0.0137 µM	0.0146 µM	–	–	–	0.0115 µM
CUGCUGGAGCUUUGCUUUAGUCGUACAUGAGGAUCACCCAUGUAGGAUAUGGUAGGCUUUGCUUACUAGAAGGAUAGAGUGAUC [salish99_ExNG3_r04_605] (Eterna round: R96, puzzle: Exclusion NG 3)	0.289 µM	0.0942 µM	–	–	–	0.0628 µM
GGAAGGUGAGGAUAUACUAAGCCGGAAACGGCAGGUGAGAGACAUGAGGAUCACCCAUGUAGAAGGCACGGAGA [AK-MS2ROC-r4-exclusion2-17] (Eterna round: R97, puzzle: Exclusion 2)	0.291 µM	0.0855 µM	–	–	–	–
AUUAAUUGUCAGAUGGGUGACAUGAGGAUCACCCAUGUCACAAGCUUUUUGUUCGUCUUAUAAUUAACCCAUCUGAC [Stov1/11-B2] (Eterna round: R97, puzzle: Sensor, turn-off variant 1)	0.0138 µM	0.0144 µM	–	–	–	–
CUUUUGUGAGGAUAUUAGUAGUAAAUAAAUAAAAUUACUACUGAGAAGGCACAUGAGGAUCACCCAUGUUCCUC [salish99_ex4_r3_041] (puzzle: Exclusion 4)	–	–	–	0.0346 µM	–	–
UCGGCGCGAGGAUAUACGUUUGCGCUUUUUCGUUUUUGUGUACAUGAGGAUCACCCAUGUAGAAGGCGCGCCGC [Apr-15 SS2-18] (puzzle: Exclusion 2)	–	–	–	0.0149 µM	–	–
ACAAGCUUAUUGCUCGGGUACAUGAGGAUCACCCAUGUUAGUGAUUAUAGAGAAUGUGUUGACGUGCGCUGCAGGUU [JR_SV3TOV1_Sub079] (puzzle: Sensor v3, turn-off variant 1)	–	–	0.0755 µM	0.046 µM	0.0922 µM	–
ACAUGACUGCUAGGAUAUAGAUGACAUGAGGAUCACCCAUGUUGUCCCAUGUUGAUGGAAACCGACUAGAAGGAGCAGCAUAUG [Ex NG2 #11] (Eterna round: R96, puzzle: Exclusion NG 2)	0.0474 µM	0.035 µM	–	–	–	0.0229 µM
AAGUAUAGAGGAUAUAGUGAGUACUACAUGAGGAUCACCCAUGUUCUUCGUUACGUAUUUCUAGAAGGCUGAUAAA [EX-5 Malc#23] (puzzle: Exclusion 5)	–	–	–	0.106 µM	–	–
GAAAAGGUAGAGGAUAUUUCAGAUCAAAGCUGCAAAGAAGGCUGCACAUGAGGAUCACCCAUGUGGUCUUUAAA [Mod of Quesina 10 - Jieux - Exclusion 6] (Eterna round: R97, puzzle: Exclusion 6)	0.0701 µM	0.0176 µM	–	–	–	–
CUAGAUCUUCGGAUCUAGUACAUGAGGAUCACCCAUGUGACGAGUUGAUCCUCAAACAAGCUUUUUGCUCGUCUUAU [Sensor v3 - Turn-off variant 1 - 17] (puzzle: Sensor v3, turn-off variant 1)	–	–	0.0199 µM	0.016 µM	0.0221 µM	–
UUAUAUAGUGUGAGGAUAUGCUGGUCCUUGGAUCAGCAGAAGGCACAUGAGGAUCACCCAUGUAGUUUAUUUUA [JL bmx4 3.01] (puzzle: Brourd's mod of Exclusion 4)	–	–	–	0.0268 µM	–	–

Sequence	apparent KD of MS2 coat protein (input ligand: FMN 200 uM)	apparent KD of MS2 coat protein (input ligand: none)	apparent KD of MS2 coat protein [1]	apparent KD of MS2 coat protein [2]	apparent KD of MS2 coat protein [3]	apparent KD of MS2 coat protein [4]
ACAAGCUCUUUGCAACUUAGUUUUGUUGCUUCGUAGGUAACAUGAGGAUCACCCAUGUAAGACUGAUGUCGUCUUAU [JR_SV3TOV2_Sub086] (Eterna round: R96, puzzle: Sensor v3, turn-off variant 2)	0.0368 µM	0.0382 µM	–	–	–	0.0206 µM
CAGAAACAUGAGGAUCACCCAUGUGAGGAUAUGAAAAAGAAAAGAAAAGAAAGAAGAAUCAGAAGGCACAAAGA [salish99-ex1_r3_085] (puzzle: Exclusion 1)	–	–	0.0313 µM	0.0239 µM	0.0318 µM	–
GCAGGUUAAGUCAGGAUAUACCUAUGGAUACAUAGGUAGAAGGGACAUGAGGAUCACCCAUGUGUCUCGCCUGC [Fiskers BMX 4 - 70] (puzzle: Brourd's mod of Exclusion 4)	–	–	–	0.0627 µM	–	–
CAUUCCGAGCGAGGAUAUCAGUAAAAGGGAAGCUGAGAAGGCGCAAACAUGAGGAUCACCCAUGUCACACGCGGGUAGUUUUCC [Ditiso] (Eterna round: R96, puzzle: Exclusion NG 1)	0.0139 µM	0.0143 µM	–	–	–	0.00974 µM
AGCCACAGAGGAUAUACAUACAUCCAGUAGUAGAGUCUACUACAUGAGGAUCACCCAUGUAGAAGGCUGUGGCA [Omei Ex2 BD B16] (Eterna round: R97, puzzle: Exclusion 2)	0.419 µM	0.0371 µM	–	–	–	–
AUCCUUAACAAGGAUAUCGGGCGGGAAAUUGUUUGAGAAGGUGUAACAUGAGGAUCACCCAUGUUAAACGUGGA [-18.8, -18.6 kcal, A 32%] (Eterna round: R97, puzzle: Exclusion 6)	0.0223 µM	0.0234 µM	–	–	–	–
AGCUGUGGCCGAGGAUAUGACAUGAGGAUCACCCAUGUACCAGAUUAGGCCUGGUAACAGGCUCAUCAGAAGGCGGUCUCAGCA [Eli eng2 - 016] (Eterna round: R96, puzzle: Exclusion NG 2)	0.0135 µM	0.0148 µM	–	–	–	0.0107 µM
UAAUUUUUAGUAAGGAUAUCGGUCCCAAGGGACAACGAGAAGGUACAUGAGGAUCACCCAUGUGAUAAAAGAAU [Mod of Zala 5 - Jieux - Brourd's Mod of Exclusion 4] (Eterna round: R97, puzzle: Brourd's mod of Exclusion 4)	0.204 µM	0.0288 µM	–	–	–	–
AAACCCUGAGGAUAUGCAUAACAACAAAGCCUCACGUGCCAACAUGAGGAUCACCCAUGUAGAAGGCGGGCCAA [Mod R3 Insanara 18 - Jieux - Exclusion 2] (Eterna round: R97, puzzle: Exclusion 2)	0.0243 µM	0.0157 µM	–	–	–	–
CCCUCACAUGAGGAUCACCCAUGUCAGGAUAUUCGAGGCGCAAAUACGCCAAAUGCAGGAAGAAGGGACGUGCC [Ususzalaxe] (puzzle: Exclusion 1)	–	–	–	0.0135 µM	–	–
UGAUCUAGCGGAGGAUAUACAUGAGGAUCACCCAUGUAGGAUCCAUGACCGUAGUCGUGGAUCGUGUAGAAGGCCGCUAGAUCU [JL ENG2 3.70] (Eterna round: R96, puzzle: Exclusion NG 2)	0.013 µM	0.0131 µM	–	–	–	0.00814 µM
AGUACUAACACGGCAGUGUUAGUACAAUAAGCUUGUGAAACAUGAGGAUCACCCAUGUCCUCAUAAGCUCGUCUUAU [salish99_TOv2_r3_065] (puzzle: Sensor v3, turn-off variant 2)	–	–	0.0186 µM	0.423 µM	0.0154 µM	–
UGUUGGCGAGGAUAUACAUGAGGAUCACCCAUGUGAGAGAAAAAAGUGAGGAAGAAAAGUAGAAGGCGCUGACC [salish99_ex3_r3_042] (puzzle: Exclusion 3)	–	–	0.165 µM	0.041 µM	0.0551 µM	–
CCGCAAAAGCAGGAUAUCGUAUCGGAUACGAUACGAGAAGGGUUUACAUGAGGAUCACCCAUGUUCCUUAGCGG [Fiskers Ex 6 - 32] (puzzle: Exclusion 6)	–	–	–	0.0268 µM	–	–
GUAGAUCGAGUUAGGAUAUGAUUACUAUCCGAAAAUCAGAAGGAACUUGAGGAUCACCCAAGUAUAGAUGAUAU [JR_BMEx4_Sub053] (Eterna round: R97, puzzle: Brourd's mod of Exclusion 4)	0.0217 µM	0.0169 µM	–	–	–	–
GAUCAACAUGAGGAUCACCCAUGUCAGGAUAUGAUACUAUGUACUUCGGUACAUAGUAUCAGAAGGGACAGAUC [Ex1-3: 1] (puzzle: Exclusion 1)	–	–	–	0.101 µM	–	–
GUUUUAUAUGAAGGAUAUACUUAACAUGAGGAUCACCCAUGUGGUGUUGUGAGUGAGUGAGUUUAGUAGAAGGUCAAUUCUUUU [JMF's solution 99] (Eterna round: R96, puzzle: Exclusion NG 2)	0.622 µM	0.408 µM	–	–	–	0.593 µM
